The values that follow come from the RNAGym collection of RNA variant scans (doi:10.1093/molbev/msab373).

First the molecules themselves.
B1: Azoarcus group I ribozyme (parent)
chain: GUGCCUUGCGCCGGGAAACCACGCAAGGGAUGGUGUCAAAUUCGGCGAAACCUAAGCGCCCGCCCGGGCGUAUGGCAACGCCGAGCCAAGCUUCGGCGCCUGCGCCGAUGAAGGUGUAGAGACUAGACGGCACCCACCUAAGGCAAACGCUAUGGUGAAGGCAUAGUCCAGGGAGUGGCGAAAGUCACACAAACCGG

The variants in the data set derive from B1. Briefly: reverse-splicing fitness (ratio to wild type); higher = more active; in vitro selection; Mg2+ level not given. An outline of the steps: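 An in vitro group I ribozyme library with randomized positions was T7-transcribed and gel-purified. In triplicate, 10 pmol RNA in EPPS pH 7.5 was reacted with 50 pmoles of a 30-nt RNA substrate for 1 h at 37 °C across several added MgCl2 levels (1–48 mM), then stopped with EDTA. Products were reverse transcribed from a substrate-complementary primer, PCR-amplified and sequenced (HiSeq 4000). Fitness is a variant's read proportion after selection over that before, normalised to wild type.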
For C82G A111G A120U C150A U176A, the reverse-splicing fitness was 0.0074.
As to C82U A111C A120C A145C C150U C169A U176A, the reverse-splicing fitness was found to be 0.012.
Next, A145U C150G C169U U176A: 0.0182; C82U A111U A120C A145G C150A C169G U176A: 0.0169; C82G A111U A120U A145U C150U: 0.0274.
Next, C82U A111U A120G A145C C150U C169A: 0.00726.
To C82G A145C C150A U176C belongs 0.0216; to C82U A120G A145G C150G C169U U176G, 0.00698; to A111U A120G A145C C169U U176A, 0.0455.
With C82G A111C A145G C150A C169A U176G, the reverse-splicing fitness was determined as 0.0086.
Next, C169A U176G: 0.0054; C82U A111U A120U A145U C150A U176C: 0.00477.
Take C82U A111C A120G A145U C150U C169A U176G: the reverse-splicing fitness was 0.00451.
As to C82A A111G A145C C150A C169G U176C, the reverse-splicing fitness came to 0.0145.
To A111C A120U A145G U176A belongs 0.221; to C82A A111U A120C C169A U176C, 0.0277; to C82U A111U A120U A145G U176C, 0.0112.
Next, C82A A111C C150G C169U U176A: 0.0073.
Next, C82U A111U A120C C150G C169A U176A: 0.0105; C82A A111C A120C A145C C169G U176C: 0.0213.
As for C82A A111U A145U C150U U176A, the reverse-splicing fitness is 0.0636.
Next, C82G A111G A120C A145C C150U C169U: 0.0103.
Next, C82G A111U A145U U176A: 0.211; C82U A111U A120C C150U U176C: 0.0158.
Take A111U A145U C150G C169U U176G: the reverse-splicing fitness stood at 0.00601.
In the case of C82G A120U A145U C150A C169A U176A, the reverse-splicing fitness was found to be 0.00218.
To C82U A111C A145C C150G C169G U176G belongs 0.0058.
To C82G A111U A120G C150G C169G U176C belongs 0.00484; to C82U A120U C150A C169A U176C, 0.0026.
Take C82A A120G C150A U176A: the reverse-splicing fitness came to 0.0118.
With C82U A111U A120C A145G C169A U176A, the reverse-splicing fitness came to 0.0202.
Next, C82A A120U A145C C169U: 0.00406.
Next, C82A A111U A120U A145C C150G U176G: 0.00265.
To A145U C150U belongs 0.943; to C82A A111G A120G A145G C150U C169A U176C, 0.0174.
On to C82G A111G A145C C150U U176C, for which the reverse-splicing fitness worked out at 0.0592.
For the variant C82U A111U A120C A145U C150G, the reverse-splicing fitness is 0.0076.
Next, C82U A111U A120C A145U C150A: 0.00878; C82G A111G A145G C150U U176G: 0.068; A111U A120U C150A C169A U176A: 0.00475.
Next, A111U A120U C150U C169A: 0.00484; C82U A111C A120U A145U C169G: 0.00369; C82U A111U A145C C169A U176A: 0.00952.
To C82U A120C C150A belongs 0.0251; to C82A A111G A120U A145C C169A U176G, 0.00163; to C82U A111U U176G, 0.0233.
With C82U A120C A145C C169U U176A, the reverse-splicing fitness stood at 0.0191.
To C82A A111U A120C C169G U176A belongs 0.0231.
Next, C82A A111U A120C C169G U176G: 0.00706; C82A A120G A145C C150A U176A: 0.00995.
Next, C82A A111C A120C A145C C150U C169U: 0.0108.
Regarding C82U A120C C169A U176C, the reverse-splicing fitness turned out to be 0.0121.
Next, C82A A111U A120C A145U C150U C169A U176A: 0.0216; C82A A145U C150G C169U: 0.00935.
Next, C82A A111G A120C A145G C150U C169A U176G: 0.00816.
To C82G A111U A120G C150U C169G U176A belongs 0.0168.
Turning to C82G A111U A145G C150G C169G U176A, the reverse-splicing fitness was found to be 0.0107.
With C82U A120U A145C C150A C169A U176G, the reverse-splicing fitness was 0.00165.
To C82U A120C C150G C169A U176G belongs 0.00606.
To A111C A145G C150A belongs 0.31.
To C82U A111C A120G A145U U176A belongs 0.0148.
In the case of A111C A145C C150A C169G U176A, the reverse-splicing fitness is 0.0274.
To A111G A120C A145U C150U C169A U176C belongs 0.00821; to C82U A111C A120C U176G, 0.00517.
To C82U A145G C150G C169A U176A belongs 0.0146; to C82A A145G, 0.631; to A111G A120C A145U, 0.745.
Next, C82G A111U A120U U176G: 0.00464.
As for C82G C150A C169G U176C, the reverse-splicing fitness was determined as 0.0214.
To A120C A145G C150U C169A U176A belongs 0.0167; to C82G A111C A145U C150U C169A, 0.00854.
Turning to C82G A111G A120U A145C C150G C169G U176C, the reverse-splicing fitness came out at 0.00228.
To C82A A111G A120U C150G C169G U176C belongs 0.0034; to C82G A111U A120U A145G C150U C169U U176C, 0.00501; to C82G A111U A145G U176C, 0.244.
In the case of C82A A111G A120G A145U C150U C169G U176A, the reverse-splicing fitness was found to be 0.014.
Next, C82U A120C A145C C150U U176C: 0.0218.
To A111U A120U A145G C169U U176G belongs 0.00258; to C82G A111G A120C C150U C169U U176A, 0.0166; to C82U A111U A120C A145U C150U U176A, 0.0114.
To C82A A111U C150U C169U belongs 0.0124.
For the variant A111G A120U A145G C150U C169U U176A, the reverse-splicing fitness came to 0.0147.
To C82G A111U A145U C169G belongs 0.00896.
